One may read the stoichiometry N as a count of units in the complex or per binding partner. One may read the Km as the substrate concentration at which the rate is half of its maximum.

In one data set the target is T1, WSUCF1 β-xylosidase (Geobacillus zalihae, UniProt A0A7H1RXW2).
T1 construct: gene IC807_05610; full-length ORF of 1509 bp (about 502 residues); N-His SUMO fusion expressed in E. coli, tag cleaved with SUMO protease; 58 kDa, apparent tetramer of 230 kDa
T1 sequence (A0A7H1RXW2 2-503): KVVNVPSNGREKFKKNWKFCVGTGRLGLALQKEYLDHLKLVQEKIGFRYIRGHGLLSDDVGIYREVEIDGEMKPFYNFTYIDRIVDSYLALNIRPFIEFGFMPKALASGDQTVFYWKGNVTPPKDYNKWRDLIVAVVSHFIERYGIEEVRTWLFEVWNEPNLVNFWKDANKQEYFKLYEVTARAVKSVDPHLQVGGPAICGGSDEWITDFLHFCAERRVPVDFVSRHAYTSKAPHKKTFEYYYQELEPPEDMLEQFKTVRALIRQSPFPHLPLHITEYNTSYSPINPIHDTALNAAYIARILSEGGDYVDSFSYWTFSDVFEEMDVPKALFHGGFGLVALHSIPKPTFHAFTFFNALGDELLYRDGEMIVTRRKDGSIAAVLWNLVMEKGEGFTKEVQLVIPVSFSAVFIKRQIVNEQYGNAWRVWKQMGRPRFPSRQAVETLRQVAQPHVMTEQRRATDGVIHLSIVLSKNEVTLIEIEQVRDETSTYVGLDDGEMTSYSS
Briefly: residual pNPX hydrolysis with added xylose. The conditions noted are these: pNPX 2.5 mg/ml stock as substrate, phosphate buffer pH 6.5, 70°C, 10 min; end-product inhibition. The class given is biochemical.

For data set [1], the target named is WSUCF1 β-xylosidase (GH39 β-xylosidase from Geobacillus sp. strain WSUCF1) (Geobacillus sp. strain WSUCF1). Briefly: SDS-PAGE without heat treatment, with zymogram; purified enzyme mixed with 2X SDS sample buffer, loaded on an 8-16% gradient SDS-PAGE gel without heating (230 kDa, active) or after 95°C for 2 min (58 kDa, inactive); tetramer inferred from the 4-fold increase in apparent mass.

Substrate in the data set “purified protein”: O=[N+]([O-])c1ccc(O[C@@H]2OC[C@@H](O)[C@H](O)[C@H]2O)cc1
Briefly: purified protein. The conditions noted are these: 50 mM phosphate buffer pH 6.5, 70°C, 0–15 mM substrate, Table 2 prints 2.3. It is filed as biochemical, Geobacillus zalihae.

As for `OC1OC[C@@H](O)[C@H](O)[C@H]1O` (stereo partly drawn) [xylose], the “% activity retained at 300 mM” value on WSUCF1 β-xylosidase is given as 50%.
As to “WSUCF1 β-xylosidase (GH39 β-xylosidase from Geobacillus sp. strain WSUCF1) (enzyme)”, in data set [1], the stoichiometry N is 4.

B1: WSUCF1 β-xylosidase (Geobacillus zalihae) (protein)
chain: T1 sequence (A0A7H1RXW2 2-503)
notes: full-length ORF of 1509 bp (about 502 residues); N-His SUMO fusion expressed in E. coli, tag cleaved with SUMO protease; 58 kDa, apparent tetramer of 230 kDa
Consider B1, for which, in the data set “purified protein”, the Km stood at 2380 µM.
